Reference: US20220306765A1 (SUZHOU TRANSCENTA THERAPEUTICS, published 2022)
Residue numbers refer to the chain shown, from its start.

B1: 7C12-C (antibody, human IgG1, V domains shown)
VH: EFQLQQSGPELEKPGASVRISCKTSGYSFTGYNMNWVKQSNGESLEWIGNIDPYYGATRYNQKFKGKATLTVDKSSSTAYMQLKSLTSEDSAVYYCARSYYGNAFDYWGQGTTLTVSS
VL: DIVMTQSPSSLTVTAGEKVTMSCKSSQSLLNSGNQKNYLTWYQQKPGQPPKLLIYWASTRESGVPDRFTGSGSGTDFTLTISSVQAEDLAVYYCQNDYSFPFTFGSGTKLEIK
notes: also called chimeric 7C12
B2: 26G6-C (antibody, human IgG1, V domains shown)
VH: B1 VH with R19K, E43Q, N50H, G56V, A57T, R59T, K65R, Y100F
VL: B1 VL with L30F
notes: also called chimeric 26G6
B3: 12E9-C (antibody, human IgG1, V domains shown)
VH: B1 VH with A57G
VL: B1 VL with S28N, S32N, T78I, S106A, I112L
notes: also called chimeric 12E9
B4: 11F12-C (antibody, human IgG1, V domains shown)
VH: B1 VH with N50Y, A57G
VL: B1 VL with F100Y
notes: also called chimeric 11F12
B5: 7C12 (antibody, V domains shown)
VH: B1 VH
VL: B1 VL
notes: mouse hybridoma antibody; also called hybridoma antibody 7C12
B6: 59A9 (antibody, V domains shown)
VH: QITQKESGPGILQPSQTLSLTCSLSGFSLSTYFIGVGWIRQPSGKGLEWLAHIWWNDNKYYNTALKSRLTISKDTSNNQVFLKIASVDTADTATYYCARMGSGAWFTYWGQGTLVTVSA
VL: B1 VL with S99Y, F100Y, F102L
notes: mouse hybridoma antibody; also called hybridoma antibody 59A9
B7: 18B10 (antibody, V domains shown)
VH: B1 VH with A57G, R59S, S99M, Y101H
VL: B1 VL with Q35L, E61K, I81L, F100Y, F102L, S106A, I112L
notes: mouse hybridoma antibody; also called hybridoma antibody 18B10
B8: 12E9 (antibody, V domains shown)
VH: B1 VH with A57G
VL: B1 VL with S28N, S32N, T78I, S106A, I112L
notes: mouse hybridoma antibody; also called hybridoma antibody 12E9
B9: 26G6 (antibody, V domains shown)
VH: B1 VH with R19K, E43Q, N50H, G56V, A57T, R59T, K65R, Y100F
VL: B1 VL with L30F
notes: mouse hybridoma antibody; also called hybridoma antibody 26G6
B10: 11F12 (antibody, V domains shown)
VH: B1 VH with N50Y, A57G
VL: B1 VL with F100Y
notes: mouse hybridoma antibody; also called hybridoma antibody 11F12
B11: 18B10-HbLa (antibody, human IgG1, kappa, V domains shown)
VH: QVQLVQSGAEVKKPGASVKVSCKASGYSFTGYNMNWVRQAPGQGLEWMGNIDPYYGGTSYNQKFKGRVTLTIDKSTSTVYMELSSLRSEDTAVYYCARMYHGNAFDYWGQGTTVTVSS
VL: DIVMTQSPDSLAVSLGERATINCKSSQSLLNSGNLKNYLTWYQQKPGQPPKLLIYWASTRKSGVPDRFSGSGSGTDFTLTISSLQAEDVAVYYCQNDYSYPLTFGGGTKVEIKR
notes: humanized 18B10, human IgG1 / kappa
B12: 18B10-HcLa (antibody, human IgG1, kappa, V domains shown)
VH: B11 VH with R38K, M48I
VL: B11 VL
notes: as for B11
B13: 18B10-HcLb (antibody, human IgG1, kappa, V domains shown)
VH: B11 VH with R38K, M48I
VL: B11 VL with I21M, S69T
notes: as for B11
B14: 18B10-HbLb (antibody, human IgG1, kappa, V domains shown)
VH: B11 VH
VL: B11 VL with I21M, S69T
notes: as for B11
B15: 18B10-HaLb (antibody, human IgG1, kappa, V domains shown)
VH: B11 VH with S28T, L70M
VL: B11 VL with I21M, S69T
notes: as for B11

Target: T1, human CLDN18.2 (human)
T1 construct: also called hCLDN18.2; Claudin-18 splice variant 2
Experiment: FACS, NUGC4 cells

How did the EC50 turn out when B1 was run?
The EC50 was 13 µg/mL.

How did the EC50 turn out when B2 was run?
Its EC50 is 67.1 µg/mL.

B3 was tested. Which EC50 did it give?
The EC50 was 9.37 µg/mL.

With B4 as the binder, how does the EC50 read?
The EC50 was 10 µg/mL.

Target: T2, human CLDN18.1 (human, UniProt P56856 1-261)
T2 construct: on HEK293-CLDN18.1 cells; also called Claudin-18 splice variant 1; NP_057453.1
T2 sequence (P56856 whole entry, canonical isoform): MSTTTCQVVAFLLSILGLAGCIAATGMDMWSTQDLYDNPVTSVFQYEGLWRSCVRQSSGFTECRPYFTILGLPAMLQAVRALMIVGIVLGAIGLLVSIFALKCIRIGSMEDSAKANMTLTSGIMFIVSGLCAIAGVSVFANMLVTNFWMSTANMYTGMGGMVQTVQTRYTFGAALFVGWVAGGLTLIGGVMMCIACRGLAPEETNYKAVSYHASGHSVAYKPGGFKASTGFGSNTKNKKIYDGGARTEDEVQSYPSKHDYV
Experiment: FACS, HEK293-CLDN18.1 cells

Does B1 bind?
Result: no binding

Does B2 bind?
Result: no binding

Does B3 bind?
Result: no binding

Does B4 bind?
Result: no binding

Target: T1, human CLDN18.2
Experiment: FACS, HEK293-CLDN18.2 cells
Procedure: (§1) Log-phase HEK293-CLDN18.2 and NUGC4 cells were re-suspended in PBS. After 3× cell wash by using FACS washing buffer (PBS+2% FBS), 100 μl/well diluted hybridoma Abs with a range from 400 nM to 0.002 nM were added into each well for incubation at 4° C. for 30 min. Again, cells were washed 3 times by using FACS washing buffer and then incubated with 100 μl/well goat anti-mIgG-FITC (1:400 dilution) at 4° C. for another 30 min. After a final 3× wash using FACS washing buffer, cells were analyzed by flow Cytometry.

How did the EC50 turn out when B5 was run?
Its EC50 is 1.08 µg/mL.

With B6 as the binder, how does the EC50 read?
The EC50 was 0.51 µg/mL.

How did the EC50 turn out when B7 was run?
The EC50 was 0.81 µg/mL.

B8 was tested. Which EC50 did it give?
Its EC50 is 0.52 µg/mL.

How did the EC50 turn out when B9 was run?
The EC50 was 0.76 µg/mL.

How did the EC50 turn out when B10 was run?
The EC50 was 0.82 µg/mL.

Target: T1, human CLDN18.2
Experiment: FACS, HEK293-CLDN18.2 cells
Remark: another data set of the same source

B1 was tested. Which EC50 did it give?
Its EC50 is 0.63 µg/mL.

B2 was tested. Which EC50 did it give?
The EC50 was 1.1 µg/mL.

For B3, which EC50 is on record?
The EC50 was 0.65 µg/mL.

B4 was tested. Which EC50 did it give?
The EC50 was 0.61 µg/mL.

Target: T3, human CLDN18.2-mRFP1, wild-type (human)
T3 construct: human CLDN18.2 (amino acid 1-261) fused to mRFP1 (amino acid 1-225), transiently expressed in HEK293 cells; also called wild-type human CLDN18.2-mRFP
Experiment: FACS, transfected HEK293, 10 µg/ml antibody;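 also: antibody binding read by flow cytometry with a FITC-labelled anti-human IgG secondary, gated on RFP-positive cells, each mutant signal expressed against wild-type CLDN18.2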
Procedure: (§2) The transfected HEK293-CLDN18.2 or HEK293-CLDN18.1 cell were resuspended in PBS with 2% BSA at density of 10\hat{ }5/well, 100 μl/well. […] Next, cells were washed 3 times by FACS washing buffer and incubated with 100 μl/well goat anti-hIgG (H+L)-FITC (1:200 dilution) at 4° C. for another 30 min. Finally, cells were washed 3 times by FACS washing buffer and analyzed by Flow Cytometry. To analyze binding to CLDN18.2 transfected cells, the RFP positive cells were used for control gating.

B1 was tested. Which “binding percentage vs wild-type CLDN18.2” value did it give?
Its value is 100%.

How did the “binding percentage vs wild-type CLDN18.2” value turn out when B2 was run?
Its value is 100%.

Which “binding percentage vs wild-type CLDN18.2” value does the source give for B3 here?
The value was 100%.

How did the “binding percentage vs wild-type CLDN18.2” value turn out when B4 was run?
Its value is 100%.

Target: human CLDN18.2-mRFP Q29M (human)
Sequence (chain, as listed by the source Q29M Q29M limits assumed): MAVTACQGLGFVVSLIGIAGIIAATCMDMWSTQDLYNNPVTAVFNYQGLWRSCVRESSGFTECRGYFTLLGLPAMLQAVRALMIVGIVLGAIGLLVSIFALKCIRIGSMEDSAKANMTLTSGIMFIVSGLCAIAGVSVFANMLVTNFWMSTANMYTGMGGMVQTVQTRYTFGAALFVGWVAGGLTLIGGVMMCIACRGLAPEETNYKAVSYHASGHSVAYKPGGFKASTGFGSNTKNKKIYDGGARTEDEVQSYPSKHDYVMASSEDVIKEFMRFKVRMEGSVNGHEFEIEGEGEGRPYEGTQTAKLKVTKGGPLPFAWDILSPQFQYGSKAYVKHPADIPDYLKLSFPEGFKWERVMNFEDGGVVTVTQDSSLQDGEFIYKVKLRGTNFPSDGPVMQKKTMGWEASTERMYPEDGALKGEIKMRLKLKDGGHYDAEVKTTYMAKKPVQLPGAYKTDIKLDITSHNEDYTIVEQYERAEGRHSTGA
Experiment: FACS, transfected HEK293, 10 µg/ml antibody;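 also: antibody binding read by flow cytometry with a FITC-labelled anti-human IgG secondary, gated on RFP-positive cells, each mutant signal expressed against wild-type CLDN18.2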
Procedure: as §2

How did the “binding percentage vs wild-type CLDN18.2” value turn out when B1 was run?
The value was 83.5%.

How did the “binding percentage vs wild-type CLDN18.2” value turn out when B2 was run?
The value was 107%.

With B3 as the binder, how does the “binding percentage vs wild-type CLDN18.2” value read?
The value was 106%.

B4 was tested. Which “binding percentage vs wild-type CLDN18.2” value did it give?
Its value is 108%.

Target: human CLDN18.2-mRFP N37D (human)
Sequence (chain, as listed by the source N37D N37D limits assumed): as the sequence (chain, as listed by the source Q29M Q29M limits assumed) above, with M29Q, N37D counted along it
Experiment: FACS, transfected HEK293, 10 µg/ml antibody;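 also: antibody binding read by flow cytometry with a FITC-labelled anti-human IgG secondary, gated on RFP-positive cells, each mutant signal expressed against wild-type CLDN18.2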
Procedure: as §2

For B1, which “binding percentage vs wild-type CLDN18.2” value is on record?
The value was 80.2%.

For B2, which “binding percentage vs wild-type CLDN18.2” value is on record?
The value was 118%.

How did the “binding percentage vs wild-type CLDN18.2” value turn out when B3 was run?
The value was 103%.

How did the “binding percentage vs wild-type CLDN18.2” value turn out when B4 was run?
Its value is 102%.

Target: human CLDN18.2-mRFP A42S (human)
Sequence (chain, as listed by the source A42S A42S limits assumed): as the sequence (chain, as listed by the source Q29M Q29M limits assumed) above, with M29Q, A42S counted along it
Experiment: FACS, transfected HEK293, 10 µg/ml antibody;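 also: antibody binding read by flow cytometry with a FITC-labelled anti-human IgG secondary, gated on RFP-positive cells, each mutant signal expressed against wild-type CLDN18.2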
Procedure: as §2

With B1 as the binder, how does the “binding percentage vs wild-type CLDN18.2” value read?
Its value is 38.7%.

Which “binding percentage vs wild-type CLDN18.2” value does the source give for B2 here?
Its value is 82.2%.

Which “binding percentage vs wild-type CLDN18.2” value does the source give for B3 here?
The value was 55.1%.

With B4 as the binder, how does the “binding percentage vs wild-type CLDN18.2” value read?
Its value is 56.9%.

Target: human CLDN18.2-mRFP N45Q (human)
Sequence (chain, as listed by the source N45Q N45Q limits assumed): as the sequence (chain, as listed by the source Q29M Q29M limits assumed) above, with M29Q, N45Q counted along it
Experiment: FACS, transfected HEK293, 10 µg/ml antibody
Procedure: as §2

For B1, which “binding percentage vs wild-type CLDN18.2” value is on record?
The value was 52.1%.

For B2, which “binding percentage vs wild-type CLDN18.2” value is on record?
Its value is 88.7%.

For B3, which “binding percentage vs wild-type CLDN18.2” value is on record?
The value was 50.8%.

B4 was tested. Which “binding percentage vs wild-type CLDN18.2” value did it give?
The value was 57.4%.

Target: human CLDN18.2-mRFP Q47E (human)
Sequence (chain, as listed by the source Q47E Q47E limits assumed): as the sequence (chain, as listed by the source Q29M Q29M limits assumed) above, with M29Q, Q47E counted along it
Experiment: FACS, transfected HEK293, 10 µg/ml antibody
Procedure: as §2

Which “binding percentage vs wild-type CLDN18.2” value does the source give for B1 here?
The value was 74.7%.

For B2, which “binding percentage vs wild-type CLDN18.2” value is on record?
The value was 116%.

For B3, which “binding percentage vs wild-type CLDN18.2” value is on record?
Its value is 89.1%.

Which “binding percentage vs wild-type CLDN18.2” value does the source give for B4 here?
The value was 86.1%.

Target: human CLDN18.2-mRFP E56Q (human)
Sequence (chain, as listed by the source E56Q E56Q limits assumed): as the sequence (chain, as listed by the source Q29M Q29M limits assumed) above, with M29Q, E56Q counted along it
Experiment: FACS, transfected HEK293, 10 µg/ml antibody
Procedure: as §2

For B1, which “binding percentage vs wild-type CLDN18.2” value is on record?
The value was 0.48%.

Which “binding percentage vs wild-type CLDN18.2” value does the source give for B2 here?
The value was 0.34%.

For B3, which “binding percentage vs wild-type CLDN18.2” value is on record?
The value was 0.35%.

B4 was tested. Which “binding percentage vs wild-type CLDN18.2” value did it give?
Its value is 0.27%.

Target: human CLDN18.2-mRFP G65P (human)
Sequence (chain, as listed by the source G65P G65P limits assumed): as the sequence (chain, as listed by the source Q29M Q29M limits assumed) above, with M29Q, G65P counted along it
Experiment: FACS, transfected HEK293, 10 µg/ml antibody
Procedure: as §2

With B1 as the binder, how does the “binding percentage vs wild-type CLDN18.2” value read?
Its value is 79.4%.

With B2 as the binder, how does the “binding percentage vs wild-type CLDN18.2” value read?
Its value is 119%.

How did the “binding percentage vs wild-type CLDN18.2” value turn out when B3 was run?
Its value is 96.7%.

B4 was tested. Which “binding percentage vs wild-type CLDN18.2” value did it give?
The value was 92.7%.

Target: human CLDN18.2-mRFP L69I (human)
Sequence (chain, as listed by the source L69I L69I limits assumed): as the sequence (chain, as listed by the source Q29M Q29M limits assumed) above, with M29Q, L69I counted along it
Experiment: FACS, transfected HEK293, 10 µg/ml antibody
Procedure: as §2

For B1, which “binding percentage vs wild-type CLDN18.2” value is on record?
Its value is 90.4%.

B2 was tested. Which “binding percentage vs wild-type CLDN18.2” value did it give?
The value was 79.7%.

Which “binding percentage vs wild-type CLDN18.2” value does the source give for B3 here?
The value was 58.1%.

For B4, which “binding percentage vs wild-type CLDN18.2” value is on record?
The value was 74.3%.

Target: T2, human CLDN18.1
Experiment: FACS, hybridoma supernatant, HEK293-CLDN18.1 cells
Procedure: Log-phase CLDN18.1 expressing HEK293-CLDN18.1 cells were resuspended in PBS at a density of 10\hat{ }5/100 μl per well. After 3× cell wash by using FACS washing buffer (PBS+2% FBS), 100 μl/well hybridoma supernatant was added into each well for incubation at 4° C. for 30 min. Again, cells were washed 3 times by using FACS washing buffer and then incubated with 100 μl/well goat anti-mIgG-FITC (1:400 dilution) at 4° C. for another 30 min. After a final 3× wash using FACS washing buffer, cells were analyzed by flow Cytometry.

Does B5 bind?
Result: no binding

Does B6 bind?
Result: no binding

Does B7 bind?
Result: no binding

Does B8 bind?
Result: no binding

Does B9 bind?
Result: no binding

Does B10 bind?
Result: no binding

Target: T1, human CLDN18.2
Experiment: flow cytometry on NUGC4 cells, goat anti-mIgG-FITC
Procedure: as §1

Which “EC50 (read off the curve)” value does the source give for B8 here?
The value was ~2 µg/mL.

With B9 as the binder, how does the “EC50 (read off the curve)” value read?
Its value is ~2 µg/mL.

Target: T1, human CLDN18.2
Experiment: flow cytometry on NUGC4 cells, goat anti-mIgG-FITC
Remark: another data set of the same source
Procedure: as §1

With B5 as the binder, how does the “EC50 (read off the curve)” value read?
Its value is ~0.5 µg/mL.

With B10 as the binder, how does the “EC50 (read off the curve)” value read?
The value was ~1 µg/mL.

Target: T1, human CLDN18.2
Experiment: flow cytometry on HEK293-CLDN18.2 cells; unit taken from the concentration axis
Procedure: as §1

Which EC50 does the source give for B11 here?
Its EC50 is 1.31 µg/mL.

Which EC50 does the source give for B12 here?
The EC50 was 1.39 µg/mL.

Which EC50 does the source give for B13 here?
The EC50 was 1.22 µg/mL.

How did the EC50 turn out when B14 was run?
The EC50 was 1.2 µg/mL.

How did the EC50 turn out when B15 was run?
Its EC50 is 1.27 µg/mL.

Target: T1, human CLDN18.2
Experiment: flow cytometry on HEK293-CLDN18.2 cells, goat anti-mIgG-FITC; unit taken from the concentration axis
Procedure: as §1

B5 was tested. Which EC50 did it give?
The EC50 was 0.417 µg/mL.

With B10 as the binder, how does the EC50 read?
Its EC50 is 0.605 µg/mL.
